PMC3724804

How the values were obtained:
[1] = target: human cytoplasmic β-actin (human) (UniProt P60709)
[2] = target: human cytoplasmic γ-actin (human) (UniProt P63261)
[3] = target: skeletal muscle α-actin (rabbit) (UniProt P68135)
[4] = target: human cytoplasmic β-actin (human) (UniProt P60709); remark: listed apart in the source
[5] = target: human cytoplasmic γ-actin (human) (UniProt P63261); remark: listed apart in the source
[6] = target: skeletal muscle α-actin (rabbit) (UniProt P68135); remark: listed apart in the source
[7] = target: human cytoplasmic γ-actin (human) (UniProt P63261); remark: listed apart in the source

## human nonmuscle myosin-2B motor domain (residues 1–782) fused with two Dictyostelium discoideum α-actinin repeats (from UniProt P35580 1-782) (domain or fragment)
[1]
  K (app,actin): F-actin concentration for half-maximal activation of steady-state ATPase (NADH-coupled assay, 25°C): 95.1 µM
  kcat of actin-activated steady-state ATPase: 0.67 s⁻¹
[2]
  K (app,actin): F-actin concentration for half-maximal activation of steady-state ATPase (NADH-coupled assay, 25°C): 86.9 µM
  kcat of actin-activated steady-state ATPase: 0.63 s⁻¹
[3]
  K (app,actin): F-actin concentration for half-maximal activation of steady-state ATPase (NADH-coupled assay, 25°C): 82 µM
  kcat of actin-activated steady-state ATPase: 0.15 s⁻¹
[4]
  Motility rate: sliding velocity of tropomyosin-decorated F-actin in the in vitro motility assay, 30°C: 35.2 nm/s
[5]
  Motility rate: sliding velocity of tropomyosin-decorated F-actin in the in vitro motility assay, 30°C: 32.7 nm/s
[6]
  Motility rate: sliding velocity of tropomyosin-decorated F-actin in the in vitro motility assay, 30°C: 30.1 nm/s
[7]
  ATP turnover in the flash photolysis experiment (5 µM F-actin), relative to α-actin: 3 fold

## human myosin-7A motor domain construct (amino acids 1–747) fused with the artificial lever arm and EYFP (from UniProt Q13402 1-747) (domain or fragment)
[1]
  K (app,actin): F-actin concentration for half-maximal activation of steady-state ATPase (NADH-coupled assay, 25°C): 12.3 µM
  kcat of actin-activated steady-state ATPase: 0.53 s⁻¹
[2]
  K (app,actin): F-actin concentration for half-maximal activation of steady-state ATPase (NADH-coupled assay, 25°C): 11.3 µM
  kcat of actin-activated steady-state ATPase: 0.75 s⁻¹
[3]
  K (app,actin): F-actin concentration for half-maximal activation of steady-state ATPase (NADH-coupled assay, 25°C): 12.3 µM
  kcat of actin-activated steady-state ATPase: 0.35 s⁻¹

## human nonmuscle myosin-2A motor domain (residues 1–775) fused with two Dictyostelium discoideum α-actinin repeats (from UniProt P35579 1-775) (domain or fragment)
[1]
  K (app,actin): F-actin concentration for half-maximal activation of steady-state ATPase (NADH-coupled assay, 25°C): 94.6 µM
  kcat of actin-activated steady-state ATPase: 0.81 s⁻¹
[2]
  K (app,actin): F-actin concentration for half-maximal activation of steady-state ATPase (NADH-coupled assay, 25°C): 88 µM
  kcat of actin-activated steady-state ATPase: 0.77 s⁻¹
[3]
  K (app,actin): F-actin concentration for half-maximal activation of steady-state ATPase (NADH-coupled assay, 25°C): 80.2 µM
  kcat of actin-activated steady-state ATPase: 0.18 s⁻¹
[4]
  Motility rate: sliding velocity of tropomyosin-decorated F-actin in the in vitro motility assay, 30°C: 84.2 nm/s
[5]
  Motility rate: sliding velocity of tropomyosin-decorated F-actin in the in vitro motility assay, 30°C: 94.6 nm/s
[6]
  Motility rate: sliding velocity of tropomyosin-decorated F-actin in the in vitro motility assay, 30°C: 76.3 nm/s

## human nonmuscle myosin-2C1 splice variant motor domain (residues 1–807) fused with two Dictyostelium discoideum α-actinin repeats (domain or fragment)
[1]
  K (app,actin): F-actin concentration for half-maximal activation of steady-state ATPase (NADH-coupled assay, 25°C): > 100 µM
  kcat of actin-activated steady-state ATPase (activity in the presence of 100 µM F-actin): 0.53 s⁻¹
[2]
  K (app,actin): F-actin concentration for half-maximal activation of steady-state ATPase (NADH-coupled assay, 25°C): > 100 µM
  kcat of actin-activated steady-state ATPase (activity in the presence of 100 µM F-actin): 0.36 s⁻¹
[3]
  K (app,actin): F-actin concentration for half-maximal activation of steady-state ATPase (NADH-coupled assay, 25°C): > 100 µM
  kcat of actin-activated steady-state ATPase (activity in the presence of 100 µM F-actin): 0.17 s⁻¹
[4]
  Motility rate: sliding velocity of tropomyosin-decorated F-actin in the in vitro motility assay, 30°C: 60.9 nm/s
[5]
  Motility rate: sliding velocity of tropomyosin-decorated F-actin in the in vitro motility assay, 30°C: 61.2 nm/s
[6]
  Motility rate: sliding velocity of tropomyosin-decorated F-actin in the in vitro motility assay, 30°C: 51.7 nm/s
